Experiments:
[1] = Immunogenicity in immunised mice: cytokine ELISA in BMDC/splenocyte co-cultures and humoral response; format: in vivo
Protocol: (§1) To assess the immunogenicity of the synthetic multi-epitope chimera characterised by SEQ ID NO: 5, inoculations were performed subcutaneously in three groups of mice (n=8/group). The animals of one group, referred to as Seq5, were inoculated with 50 µg of the synthetic chimera characterised by SEQ ID NO: 5 and 25 µg of saponin, as an adjuvant; the animals of another group, saponin control group, were inoculated with 25 µg of saponin; and the PBS control group was inoculated with PBS (buffer in which both the synthetic multi-epitope chimera characterised by SEQ ID NO: 5 and the adjuvant were transported). The inoculation was carried out on the left rear plantar pad on days 60, 45 and 30, with respect to day zero of infection, with a total volume of 50 µl.
The displacement of the immune response in the group immunised with the chimera characterised by SEQ ID NO: 5 correlates with increased leishmanicidal activity in target cells infected with Leishmania.
Use was made of virgin bone marrow-derived dendritic cells (BMDC) stimulated with soluble Leishmania antigen (SLA; produced with the supernatants obtained after having lysed cultures of Leishmania promastigotes obtained after sonication and subsequent centrifugation), grey bars; or stimulated with the chimera characterised by SEQ ID NO: 5, white bars; unstimulated BMDC was used as negative control, indicated as N-E with black bars. The BMDCs were co-cultured with spleen cells, splenocytes, of the animals previously immunised as indicated in example 3. Cytokine production (pg/ml) was quantified using the ELISA technique. The data are presented as the mean ± standard deviation (SD). The hash marks indicate statistically significant differences (#, P < 0.05; ##, P <0.001) between the immunised groups and the two control groups (Saponin and PBS). The asterisk indicates statistically significant differences (*, P < 0.05; **, P < 0.001).

[2] = system: BMDCs infected with L. infantum; test: Leishmanicidal activity in L. infantum infected BMDCs co-cultured with splenocytes of immunised animals; format: cell-based, mice; conditions: 24 and 72 hours of postinfection incubation; versus Saponin and PBS control groups
Protocol: as §1
The leishmanicidal activity of the chimera characterised by SEQ ID NO: 5 (indicated in the figure as Seq5) was assessed in BMDC. Virgin BMDCs infected with L. infantum were co-cultured with splenocytes from animals previously immunised with the chimera characterised by SEQ ID NO: 5 as indicated in example 3, and with splenocytes from animals previously inoculated with the two controls used according to example 5. The parameters of infected cells and number of intracellular amastigotes were determined by optical microscopy. The data are presented as the mean ± SD. […]

L. infantum = test: Protection against L. infantum in the murine model of visceral leishmaniasis; format: in vivo, mice; conditions: 6 weeks after i.v. infection with 5×10^5 L. infantum promastigotes; versus Saponin and PBS groups
Protocol: as §1
30 days after the last immunisation carried out as described in example 3, an infection was intravenously performed with 5×10^5 infective L. infantum promastigotes in the 3 groups of animals (which we have named Seq5, Saponin and PBS). 6 weeks after infection, the animals were euthanised and the parasite load in the VL target organs was assessed. The parasite count was carried out by decimal dilutions of spleen and liver macerates, separately, and their subsequent observation under a microscope. […]

[3] = splenocytes of immunised mice co-cultured with BMDC stimulated with the chimera or SLA, ELISA, versus Saponin and PBS controls

B1: … RFQSSAIMALQEITRGCVRRMARRGGVK (peptide)
chain: TAVLEYLTAELLELSRSLKAINAQMSMSHRTMKIVNSYVEGLRFQSSAIMALQEITRGCVRRMARRGGVK
modifications: Multi-epitopic chimera consisting of SEQ ID NO: 1, 2, 3 and 4 from Leishmania infantum
[1]; mice immunised s.c. with 50 µg chimera and 25 µg saponin
  specific humoral response against the synthetic multi-epitope chimera (isotype): redirection of the specific humoral response against the synthetic multi-epitope chimera to the IgG2a isotype
[1]; mice immunised s.c. with 50 µg chimera and 25 µg saponin, versus Saponin and PBS controls
  immune response profile: protective Th1 cell response profile
[1]; [3]
  production of IFN-γ: greater amount
  production of IL-12: greater amount
[2]
  number of intracellular amastigotes detected per cell (No./BMDC): lower number
  percentage of infected target cells (% BMDC): notable reduction
L. infantum
  parasite load in the liver (H): lower parasite load
  parasite load in the spleen (B): lower parasite load

From patent EP4163303A1, “SYNTHETIC MULTI-EPITOPE CHIMERA AS A VACCINE AND TREATMENT FOR LEI[…] MAMMALS” (Universidad Complutense De Madrid, priority 2020, dated 2021)
